Measurements as given in publication PMC7982615, “Phase 1 study of telisotuzumab vedotin in Japanese patients with advanced solid tumors” (Cancer Medicine, 2021).
Entries after “also recorded” stand apart in the source; their conditions may differ.

Experiment: Safety and tolerability (TEAEs, DLTs, AESIs) in phase 1 dose-escalation study of teliso‐v
Format: in vivo, human
Details: for Dose‐limiting toxicity (DLT) events: 2.4 and 2.7 mg/kg IV Q3W, dose escalation
Method: This phase 1, open‐label, dose‐escalation clinical trial was conducted at two sites in Japan (NCT03311477). Enrollment began on November 6, 2017, and the trial was completed on March 4, 2019.
Escalation into the higher dose level proceeded if the first three evaluable patients in the lower dose level completed the first‐cycle (for at least 21 days) safety assessment without experiencing a dose‐limiting toxicity (DLT). DLT evaluations for dose escalation and determination of RP2D were carried out by investigators, study sponsor, and an independent safety monitor. […] No premedication was required. On the basis of confirmed availability of archival tumor tissue at enrollment, patients were retrospectively analyzed for c‐Met expression and MET amplification. c‐Met expression was determined by immunohistochemistry (IHC), and MET amplification was determined by fluorescence in situ hybridization or sequencing of plasma or tumor DNA.
Safety assessments included treatment‐emergent adverse events (TEAEs) graded according to the National Cancer Institute Common Terminology Criteria for Adverse Events version 4.03. TEAEs, vital signs, physical examinations, electrocardiograms, laboratory tests, and ECOG performance status were monitored during the study. Any grade ≥3 study drug‐related nonhematologic toxicity was documented as a DLT, except as follows: grade 3 nausea or vomiting lasting ≤48 hours that was successfully managed with antiemetics; grade 3 diarrhea successfully managed with antidiarrheal; grade 3 constipation lasting ≤7 days; grade 3 acute infusion reaction that resolved to grade ≤1 within 24 hours after the end of dosing; grade 3 and 4 laboratory tests including but not limited to lactate dehydrogenase, alkaline phosphatase, and gamma‐glutamyl transferase that were considered nonclinically significant by the investigator; liver function test abnormalities; grade 3 and 4 electrolyte imbalance unless associated with clinical symptomatology despite supplementation; and grade 3 hyperglycemia that was manageable without hospitalization. The following hematologic toxicities were documented as a DLT: any grade 4 hematologic toxicity (excluding febrile neutropenia or leukopenia lasting for ≤7 days, or lymphopenia); anemia requiring red blood cell transfusion; thrombocytopenia requiring platelet transfusion; grade 3 thrombocytopenia in the presence of grade ≥2 bleeding; and grade ≥3 febrile neutropenia. Toxicity management criteria are described in the Supplementary appendix.
All data were summarized and tabulated by dose cohort. Categoric data were summarized in terms of frequency counts and percentages. Continuous data were summarized using descriptive statistics, including number of observations, mean, standard deviation, median, minimum, and maximum. No formal statistical analysis was performed for efficacy variables, which were all exploratory in nature. ORR was defined as the proportion of patients with a confirmed partial response (PR) or complete response (CR). Duration of response was defined as time from a patient's initial objective response to the first date of disease progression (PD) or death. The overall disease control rate was defined as the proportion of patients with CR, PR, or stable disease (SD). […] PFS was estimated using the Kaplan–Meier method. Efficacy analyses are presented with two‐sided exact 95% binomial CI.

[1] = total, N = 9, listed as teliso-v
[2] = total, N = 9, listed as telisotuzumab vedotin
[3] = total, N = 9, listed as teliso‐v

Teliso‐v: antibody‐drug conjugate: anti–c‐Met humanized monoclonal antibody ABT‐700 coupled to monomethyl auristatin E through a valine‐citrulline linker, drug:antibody ratio approximately three
Dose‐limiting toxicity (DLT) events: no DLTs were reported; also recorded: no DLTs observed | Dose‐limiting toxicity (DLT) events (listed as telisotuzumab vedotin): no dose‐limiting toxicity events were observed | Hematologic AEs (AESI) (2.4‐mg/kg dose level): 33% | Peripheral neuropathy events (AESI) (2.4‐mg/kg dose level): three | Hematologic AEs (AESI) (2.7‐mg/kg dose level): 67% | Ocular AESIs (2.7‐mg/kg dose level): three | Peripheral neuropathy events (AESI) (2.7‐mg/kg dose level): three | Frequency of corneal epithelium disorder (Japanese patients, four of nine): 44.4% | AEs leading to withdrawal of consent (N = 9): three | Dry eye (ocular AESI) (N = 9): one | Keratitis (ocular AESI) (N = 9): one | Patients with at least one TEAE (N = 9): nine | Patients with at least one TEAE related to teliso‐v (N = 9): nine | Patients with serious AEs (N = 9): two | Punctate keratitis (ocular AESI) (N = 9): two | Serious AEs, number of events (N = 9): Three | Visual impairment (ocular AESI) (N = 9): one | Maximum tolerated dose (doses up to 2.7 mg/kg Q3W, 3 + 3 design): not reached | Deaths (either dose level): No deaths were reported | Recommended phase 2 dose (RP2D) (every 3 weeks, Japanese patients): 2.7 mg/kg | Ocular AESIs (grade 1 or 2, total, N = 9): 44% | TEAE leading to treatment discontinuation (grade 2, teliso‐v related serious AE, 2.7‐mg/kg dose level): gait disturbance | Peripheral neuropathy events (AESI) (grades 1 and 2, total, N = 9): 67% | Alanine aminotransferase increased, TEAE regardless of relationship (total, N = 9): 2 (22) n (%) | Alanine aminotransferase increased, TEAE related to teliso‐v (total, N = 9): 2 (22) n (%) | Alopecia, TEAE regardless of relationship (total, N = 9): 2 (22) n (%) | Alopecia, TEAE related to teliso‐v (total, N = 9): 2 (22) n (%) | Anemia, TEAE regardless of relationship (total, N = 9): 2 (22) n (%) | Aspartate aminotransferase increased, TEAE regardless of relationship (total, N = 9): 2 (22) n (%) | Aspartate aminotransferase increased, TEAE related to teliso‐v (total, N = 9): 2 (22) n (%) | Back pain, TEAE regardless of relationship (total, N = 9): 2 (22) n (%) | Constipation, TEAE regardless of relationship (total, N = 9): 2 (22) n (%) | Decreased weight, TEAE regardless of relationship (total, N = 9): 33% | Decreased white blood cell count, TEAE regardless of relationship (total, N = 9): 33% | Decreased white blood cell count, TEAE related to teliso‐v (total, N = 9): 33% | Diarrhea, TEAE regardless of relationship (total, N = 9): 2 (22) n (%) | Fatigue, TEAE regardless of relationship (total, N = 9): 2 (22) n (%) | Fatigue, TEAE related to teliso‐v (total, N = 9): 2 (22) n (%) | Hypoalbuminemia, TEAE regardless of relationship (total, N = 9): 2 (22) n (%) | Malaise, TEAE regardless of relationship (total, N = 9): 2 (22) n (%) | Malaise, TEAE related to teliso‐v (total, N = 9): 2 (22) n (%) | Neutrophil count decreased, TEAE regardless of relationship (total, N = 9): 2 (22) n (%) | Neutrophil count decreased, TEAE related to teliso‐v (total, N = 9): 2 (22) n (%) | Peripheral neuropathy, TEAE regardless of relationship (total, N = 9): 2 (22) n (%) | Peripheral neuropathy, TEAE related to teliso‐v (total, N = 9): 2 (22) n (%) | Punctate keratitis, TEAE regardless of relationship (total, N = 9): 2 (22) n (%) | Punctate keratitis, TEAE related to teliso‐v (total, N = 9): 2 (22) n (%) | Weight decreased, TEAE regardless of relationship (total, N = 9): 3 (33) n (%) | Weight decreased, TEAE related to teliso‐v (total, N = 9): 2 (22) n (%) | White blood cell count decreased, TEAE regardless of relationship (total, N = 9): 3 (33) n (%) | White blood cell count decreased, TEAE related to teliso‐v (total, N = 9): 3 (33) n (%) | Decreased appetite, TEAE regardless of relationship [1]: 3 (33) n (%) | Nausea, TEAE regardless of relationship [1]: 3 (33) n (%) | Peripheral sensory neuropathy, TEAE regardless of relationship [1]: 4 (44) n (%) | Decreased appetite, TEAE related to teliso‐v [2]: 33% | Nausea, TEAE related to teliso‐v [2]: 33% | Peripheral sensory neuropathy, TEAE related to teliso‐v [2]: 44% | Decreased appetite, TEAE regardless of relationship [3]: 33% | Decreased appetite, TEAE related to teliso‐v [3]: 3 (33) n (%) | Nausea, TEAE regardless of relationship [3]: 33% | Nausea, TEAE related to teliso‐v [3]: 3 (33) n (%) | Peripheral sensory neuropathy, TEAE regardless of relationship [3]: 44% | Peripheral sensory neuropathy, TEAE related to teliso‐v [3]: 4 (44) n (%)
